Measurements reported in article PMC314469, “Protein Interaction Networks by Proteome Peptide Scanning” (PLoS Biology, 2004).

T1: Abp1 SH3 (ABP1_YEAST), P15891
T1 chain: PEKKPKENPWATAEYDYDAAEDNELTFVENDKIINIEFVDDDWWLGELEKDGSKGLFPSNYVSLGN

B1: YLR079W 130-143 (peptide)
chain: EEEEGEVLLPPSRP
B2: YFL004W 659-671 (peptide)
chain: EEEIELPPGVKKP
B3: YNL165W 290-303 (peptide)
chain: EEFDSYSRSRPTRP
B4: YPL117C 30-42 (peptide)
chain: EEFPEIIPLQQRP
B5: YGR037C 7-20 (peptide)
chain: EEKAKAVNELPTKP
B6: YLR285W 15-27 (peptide)
chain: EEPEDFLPPPPKP
B7: YDR227W 268-280 (peptide)
chain: EESKARSPGIAKP
B8: YDR127W 1000-1013 (peptide)
chain: EETIVFLQSDPSRP
B9: YBR237W 77-89 (peptide)
chain: EFRKSDEPVSVKP
B10: YMR027W 61-74 (peptide)
chain: EFRQEIIDRVPLRP
B11: YKL010C 660-672 (peptide)
chain: EFTDMEIPDSVKP
B12: YPR184W 920-932 (peptide)
chain: EGGAYIIPNFGKP
B13: YKL144C 179-191 (peptide)
chain: EGKNEETPQNEKP
B14: YNL086W 59-71 (peptide)
chain: EGQVLYDPEPFKP
B15: YLR081W 51-64 (peptide)
chain: EGSQSVPIEIPKKP
B16: YBL101C 762-774 (peptide)
chain: EHAVANGPSHRRP
B17: YOR116C 588-600 (peptide)
chain: EHFDIPPPAIMKP
B18: YIL103W 218-230 (peptide)
chain: EHMLYIIPPQIKP
B19: YOR208W 421-433 (peptide)
chain: EHSRVKLPHSPKP
B20: YLL040C 1996-2009 (peptide)
chain: EIELLVDSKDPNKP
B21: YGR267C 9-21 (peptide)
chain: EIERHETPLNIRP
B22: YJL010C 631-643 (peptide)
chain: EIFPNSKPLQPKP
B23: YIR007W 368-380 (peptide)
chain: EIQNGKRPVLLKP
B24: YCL061C 306-319 (peptide)
chain: EKARNVEYKKPQKP
B25: YJL196C 11-23 (peptide)
chain: EKASRFRPTIDRP
B26: YNR051C 181-193 (peptide)
chain: EKEKEKSPEISKP
B27: YHL038C 520-532 (peptide)
chain: EKFRVNRPIQLRP
B28: YLR285W 193-206 (peptide)
chain: EKGQALVVFSPHRP
B29: YCL027W 384-396 (peptide)
chain: EKHELIIPTPSKP
B30: YPR016W-A 66-78 (peptide)
chain: EKTGNAHPLGFRP
B31: YDL203C 183-196 (peptide)
chain: EKVYRTEEKAPIRP
B32: YIR007W 413-425 (peptide)
chain: ELFIIIQPPVMKP
B33: YCR088W 207-220 (peptide)
chain: ELKERDFDQAPLKP
B34: YGR134W 1043-1056 (peptide)
chain: ELNLKLLNLFPSKP
B35: YKL155C 149-161 (peptide)
chain: ELQKRVGPDNFKP
B36: YNL274C 336-348 (peptide)
chain: ELQNEDWPNESKP
B37: YGR099W 548-560 (peptide)
chain: ELRGLDDPTIVKP
B38: YHR190W 379-391 (peptide)
chain: EMYQDKLPPNVKP
B39: YOR347C 67-80 (peptide)
chain: ENAVKSEQQFPGRP
B40: YER085C 144-156 (peptide)
chain: ENEFQVIPIRFKP
B41: YJR122W 411-423 (peptide)
chain: ENEPTLNPFTNKP
B42: YIL063C 22-35 (peptide)
chain: ENPIDKLDGTPKRP
B43: YGL061C 171-184 (peptide)
chain: ENRKGEKDAAPAKP
B44: YOR217W 594-606 (peptide)
chain: ENYLSTRPSVLKP
B45: YMR086W 699-712 (peptide)
chain: EPASVYESNGPNKP
B46: YHL022C 194-207 (peptide)
chain: EPKMQKQTIFPGKP
B47: YCL008C 154-167 (peptide)
chain: EPPQDQAPSLPPKP
B48: YER161C 148-160 (peptide)
chain: EPVTKERPHFNKP
B49: YBR284W 656-669 (peptide)
chain: EQAPTGLVLEPSKP
B50: YIL031W 818-830 (peptide)
chain: EQEEFTSPYFGRP
B51: YDR062W 281-293 (peptide)
chain: EQIVLGQPKTNRP
B52: YCL051W 196-209 (peptide)
chain: EQKLPTALLSPLRP
B53: YPL027W 171-184 (peptide)
chain: ERLERQFEEVPFRP
B54: YGR268C 21-33 (peptide)
chain: ERLQSQPPRPPRP
B55: YKR027W 750-762 (peptide)
chain: ERPLPDLPSTIKP
B56: YKL032C 351-364 (peptide)
chain: ERRKQLKKQGPKRP
B57: YGL173C 598-610 (peptide)
chain: ERSKNLIPPAFRP
B58: YKL204W 262-274 (peptide)
chain: ESASHETPTDLRP
B59: YDR448W 139-152 (peptide)
chain: ESFRERPLEPPRKP

Target: T1, Abp1 SH3 (ABP1_YEAST), P15891
Assay: SPOT array

| Binder | normalised SPOT signal, Boehringer light units (BLU); mean over the file's lines of this peptide |
| --- | --- |
| B1 | 81.5 |
| B2 | 77.1 |
| B3 | 254 |
| B4 | 145 |
| B5 | 188 |
| B6 | 108 |
| B7 | 404 |
| B8 | 50.7 |
| B9 | 69.6 |
| B10 | 118 |
| B11 | 72.6 |
| B12 | 4.8 |
| B13 | 126 |
| B14 | 128 |
| B15 | 132 |
| B16 | 97.9 |
| B17 | 106 |
| B18 | 96.5 |
| B19 | 395 |
| B20 | 126 |

| Binder | normalised SPOT signal, Boehringer light units (BLU); mean over the file's lines of this peptide |
| --- | --- |
| B21 | 0 |
| B22 | 13.6 |
| B23 | 248 |
| B24 | 80.9 |
| B25 | 910 |
| B26 | 67.3 |
| B27 | 1490 |
| B28 | 182 |
| B29 | 140 |
| B30 | 124 |
| B31 | 38.6 |
| B32 | 98.8 |
| B33 | 89.2 |
| B34 | 164 |
| B35 | 130 |
| B36 | 24 |
| B37 | 152 |
| B38 | 143 |
| B39 | 80.3 |
| B40 | 127 |

| Binder | normalised SPOT signal, Boehringer light units (BLU); mean over the file's lines of this peptide |
| --- | --- |
| B41 | 138 |
| B42 | 21.5 |
| B43 | 87.1 |
| B44 | 84.9 |
| B45 | 18.6 |
| B46 | 619 |
| B47 | 156 |
| B48 | 534 |
| B49 | 51.6 |
| B50 | 67.4 |
| B51 | 87.7 |
| B52 | 126 |
| B53 | 201 |
| B54 | 10400 |
| B55 | 106 |
| B56 | 77.9 |
| B57 | 488 |
| B58 | 147 |
| B59 | 675 |
